Results reported in patent US20040259198.

Biological target: T1, recombinant human MAT II β subunit protein with N-terminal poly-His tag, expressed in E. coli from pQE-30 (Clone 5)
T1 chain: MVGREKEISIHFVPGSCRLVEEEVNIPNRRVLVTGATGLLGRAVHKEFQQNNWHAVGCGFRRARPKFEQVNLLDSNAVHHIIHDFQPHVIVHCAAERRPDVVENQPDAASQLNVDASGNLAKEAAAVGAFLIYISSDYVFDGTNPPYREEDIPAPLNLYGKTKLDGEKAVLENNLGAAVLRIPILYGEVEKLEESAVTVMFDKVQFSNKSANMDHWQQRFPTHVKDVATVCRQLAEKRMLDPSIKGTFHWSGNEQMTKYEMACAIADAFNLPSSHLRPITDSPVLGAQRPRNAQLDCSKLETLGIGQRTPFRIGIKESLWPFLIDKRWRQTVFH

B1: endogenous E. coli MAT α subunit (protein)
chain: AKHLFTSESVSEGHPDKIADQISDAVLDAILEQDPKARVACETYVKTGMVLVGGEITTSAWVDIEEITRNTVREIGYVHSDMGFDANSCAVLSAIGKQSPDINQGVDRADPLEQGAGDQGLMFGYATNETDVLMPAPITYAHRLVQRQAEVRKNGTLPWLRPDAKSQVTFQYDDGKIVGIDAVVLSTQHSEEIDQKSLQEAVMEEIIKPILPAEWLTSATKFFINPTGRFVIGGPMGDCGLTGRKIIVDTYGGMARHGGGAFSGKDPSKVDRSAAYAARYVAKNIVAAGLADRCEIQVSYAIGVAEPTSIMVETFGTEKVPSEQLTLLVREFFDLRPYGLIQMLDLLHPIYKETAAYGHFGREHFPWEKTDKAQLLRDAAGLK
- Km of MAT for L-methionine: This association changed the kinetic properties of the enzyme and lowered the Km of MAT for L-methionine
